Measured values taken from patent US20030007968A1, “Methods of inducing organ transplant tolerance and correcting hemoglobinopathies” (priority 2001, published 2003).
One block for each molecule: values may come before it.

Assays:
[1] = tested on: C57BL/6 (B6) recipient mice; test: Congenic T cell-depleted bone marrow transplant after single busulfan dose, donor chimerism by flow cytometry; format: in vivo, mouse; conditions: busulfan 0, 10, 20, 30 mg/kg i.p. one day before 2×10^7 congenic T cell-depleted bone marrow cells
Method: Bone marrow preparation and treatment regimens.
Similar results were achieved when the busulfan was administered six or twelve hours before the administration of the T cell-depleted bone marrow cells.

[2] = with marrow rescue; cited from earlier work
CD86Ig [3] = target: T1, CD86Ig (Homo sapiens, UniProt P42081); test: BIAcore surface plasmon resonance equilibrium and kinetic binding to immobilized CD86Ig; conditions: for slower “off” rate than wild type CTLA4Ig: screening of COS culture media samples over immobilized CD86Ig; for koff / kon: immobilized CD86Ig, means±standard deviation from three experiments
T1 construct: Ig (immunoglobulin fusion partner)
Excerpt: (§1) To synthesize and screen soluble CTLA4 mutant molecules with altered affinities for a B7 molecule (e.g. CD80, CD86), a two-step strategy was adopted. The experiments entailed first generating a library of mutations at a specific codon of an extracellular portion of CTLA4 and then screening these by BIAcore analysis to identify mutants with altered reactivity to B7. The Biacore assay system (Pharmacia, Piscataway, N.J.) uses a surface plasmon resonance detector system that essentially involves covalent binding of either CD80Ig or CD86Ig to a dextran-coated sensor chip which is located in a detector. The test molecule can then be injected into the chamber containing the sensor chip and the amount of complementary protein that binds can be assessed based on the change in molecular mass which is physically associated with the dextran-coated side of the sensor chip; the change in molecular mass can be measured by the detector system.
(§2) COS cells were transfected with individual miniprep purified plasmid DNA and propagated for several days. Three day conditioned culture media was applied to BIAcore biosensor chips (Pharmacia Biotech AB, Uppsala, Sweden) coated with soluble CD80Ig or CD86Ig. The specific binding and dissociation of mutant proteins was measured by surface plasmon resonance (O'Shannessy, D. J., et al., 1997 Anal. Biochem. 212:457-468). All experiments were run on BIAcore™ or BIAcore™ 2000 biosensors at 25° C. Ligands were immobilized on research grade NCM5 sensor chips (Pharmacia) using standard N-ethyl-N′-(dimethylaminopropyl) carbodiimidN-hydroxysuccinimide coupling (Johnsson, B., et al. (1991) Anal. Biochem. 198: 268-277; Khilko, S. N., et al.(1993) J. Biol. Chem 268:5425-15434).
(§3) BIAcore analysis conditions and equilibrium binding data analysis were performed as described in J. Greene et al. 1996 J. Biol. Chem. 271:26762-26771 and in U.S. patent application Ser. Nos. 09/579,927, and 60/214,065 which are herein incorporated by reference.
(§4) Senosorgram baselines were normalized to zero response units (RU) prior to analysis. Samples were run over mock-derivatized flow cells to determine background RU values due to bulk refractive index differences between solutions. Equilibrium dissociation constants (Kd) were calculated from plots of Req versus C, where Req is the steady-state response minus the response on a mock-derivatized chip, and C is the molar concentration of analyte. Binding curves were analyzed using commercial nonlinear curve-fitting software (Prism, GraphPAD Software).
(§5) Experimental data were first fit to a model for a single ligand binding to a single receptor (1-site model, i.e., a simple langmuir system, A+B AB), and equilibrium […] constants (Kd=[A]·[B]\[AB]) were calculated from the equation R=Rmax·C/(Kd+C). Subsequently, data were fit to the simplest two-site model of ligand binding (i.e., to a receptor having two non-interacting independent binding sites as described by the equation R=Rmax1·C\(Kd1+C)+Rmax2·C\(Kd2+C).
(§6) The goodness-of-fits of these two models were analyzed visually by comparison with experimental data and statistically by an F test of the sums-of-squares.
(§7) Association and disassociation analyses were performed using BIA evaluation 2.1 Software Pharmacia). Association rate constants kon were calculated in two ways, assuming both homogenous single-site interactions and parallel two-site interactions. For single-site interactions, kon values were calculated according to the equation Rt=Req(1−exp^−ks(t-t0), where Rt is a response at a given time, t; Req is the steady-state response; to is the time at the start of the injection; and ks=dR/dt=kon·Ckoff, where C is a concentration of analyte, calculated in terms of monomeric binding sites. For two-site interactions kon values were calculated according to the equation Rt=Req1(1−exp^−ks1(t-t0)+Req2(1−exp^ks2(t-t0). For each model, the values of kon were determined from the calculated slope (to about 70% maximal association) of plots of ks versus C. […]

CD80Ig [4] = target: T2, CD80Ig (Homo sapiens, UniProt P33681); test: BIAcore surface plasmon resonance equilibrium and kinetic binding to immobilized CD80Ig; conditions: for koff / kon: immobilized CD80Ig, means±standard deviation from three experiments
T2 construct: Ig (immunoglobulin fusion partner)
Excerpt: as §1, §2, §3, §4, §5, §6, §7

CD86Ig [5] = target: T3, CD86Ig (UniProt P42081 24-247, limits assumed); test: SPR, immobilized CD86Ig, monomer against dimer (L104EA29YIg)
T3 construct: Immobilized on the BIAcore chip by amine coupling; also called soluble CD86Ig
T3 sequence (looked up): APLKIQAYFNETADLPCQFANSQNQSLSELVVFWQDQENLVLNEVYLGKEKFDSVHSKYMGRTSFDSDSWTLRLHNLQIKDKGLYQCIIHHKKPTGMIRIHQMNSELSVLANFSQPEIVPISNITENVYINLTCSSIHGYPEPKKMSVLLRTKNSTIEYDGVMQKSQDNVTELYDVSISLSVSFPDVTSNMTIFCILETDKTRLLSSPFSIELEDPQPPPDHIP

CD86Ig [6] = target: T3, CD86Ig; test: SPR, immobilized CD86Ig
CD86Ig [7] = target: T3, CD86Ig; test: SPR (BIAcore), equilibrium, CD86Ig immobilized, purified monomeric analyte
CD80Ig [8] = target: T4, CD80Ig (UniProt P33681 35-242, limits assumed); test: SPR (BIAcore), equilibrium, CD80Ig immobilized, purified monomeric analyte
T4 construct: Immobilized on the BIAcore chip by amine coupling; also called soluble CD80Ig
T4 sequence (looked up): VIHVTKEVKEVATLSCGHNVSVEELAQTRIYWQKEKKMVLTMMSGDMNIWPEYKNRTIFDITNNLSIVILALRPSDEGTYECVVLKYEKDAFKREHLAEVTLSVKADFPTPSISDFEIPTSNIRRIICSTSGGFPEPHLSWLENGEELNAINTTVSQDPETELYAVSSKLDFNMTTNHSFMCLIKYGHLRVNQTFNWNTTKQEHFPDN

CD86Ig [9] = target: T3, CD86Ig; test: SPR (BIAcore), CD86Ig immobilized, purified monomeric analyte
CD80Ig [10] = target: T4, CD80Ig; test: SPR, immobilized CD80Ig
CD80Ig [11] = target: T4, CD80Ig; test: SPR (BIAcore), CD80Ig immobilized, purified monomeric analyte

T2 sequence (P33681 with tags, fused parts or gaps limits assumed): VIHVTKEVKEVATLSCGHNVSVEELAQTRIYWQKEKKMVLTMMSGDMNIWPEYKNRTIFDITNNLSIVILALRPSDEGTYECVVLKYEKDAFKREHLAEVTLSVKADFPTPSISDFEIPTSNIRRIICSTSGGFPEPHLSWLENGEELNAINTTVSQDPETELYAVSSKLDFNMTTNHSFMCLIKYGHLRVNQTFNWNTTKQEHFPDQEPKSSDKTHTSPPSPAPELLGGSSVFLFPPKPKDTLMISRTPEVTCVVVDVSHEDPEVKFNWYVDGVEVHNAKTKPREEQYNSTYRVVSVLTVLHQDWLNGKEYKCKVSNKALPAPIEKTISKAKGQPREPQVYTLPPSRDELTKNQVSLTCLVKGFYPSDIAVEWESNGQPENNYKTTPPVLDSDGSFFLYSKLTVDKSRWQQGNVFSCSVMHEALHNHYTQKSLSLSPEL
T1 sequence (P42081 with tags, fused parts or gaps limits assumed): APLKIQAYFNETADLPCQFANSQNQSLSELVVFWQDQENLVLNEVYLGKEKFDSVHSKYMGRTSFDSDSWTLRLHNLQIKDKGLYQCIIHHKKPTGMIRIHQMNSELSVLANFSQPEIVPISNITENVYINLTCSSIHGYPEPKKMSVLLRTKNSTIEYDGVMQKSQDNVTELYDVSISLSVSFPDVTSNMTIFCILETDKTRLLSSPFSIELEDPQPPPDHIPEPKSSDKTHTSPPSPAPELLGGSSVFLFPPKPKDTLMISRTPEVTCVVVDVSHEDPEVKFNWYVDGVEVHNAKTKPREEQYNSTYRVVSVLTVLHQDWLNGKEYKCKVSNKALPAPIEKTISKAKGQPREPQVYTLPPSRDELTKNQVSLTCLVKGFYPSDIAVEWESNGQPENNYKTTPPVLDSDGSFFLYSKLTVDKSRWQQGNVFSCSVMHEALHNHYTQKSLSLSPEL

slower “off” rate than wild type CTLA4Ig (CD86Ig [3]): approximately 4 fold
Molecule: L104EA29WIg: double-site CTLA4 mutant Ig fusion, L104E and alanine +29 to tryptophan

koff (CD86Ig [3]): 840 ± 55 (× 10^−3) S^−1
kon (CD86Ig [3]): 16.5 ± 0.5 (× 10^5) M^−1 S^−1
koff (CD80Ig [4]): 230 ± 10 (× 10^−3) S^−1
kon (CD80Ig [4]): 12.0 ± 1.0 (× 10^5) M^−1 S^−1
Molecule: CTLA4XC120S: single chain (monomeric) CTLA4 extracellular domain with cysteine 120 to serine mutation [reference compound]

fold lower binding affinity than the respective dimer (CD86Ig [5]): 35 to 80 fold
fold higher affinity than CTLA4XC120S (CD86Ig [6]): ~2 fold
fold slower rate of dissociation than CTLA4XC120S (CD86Ig [6]): ~3 fold
Kd (CD86Ig [7]): 267 nM
Kd (CD80Ig [8]): 85 nM
koff (CD86Ig [9]): 0.3 s⁻¹
kon (CD86Ig [9]): 1.14e+06 M⁻¹ s⁻¹
fold higher affinity than CTLA4XC120S (CD80Ig [10]): ~2 fold
fold slower rate of dissociation than CTLA4XC120S (CD80Ig [10]): ~3 fold
koff (CD80Ig [11]): 0.071 s⁻¹
kon (CD80Ig [11]): 830000 M⁻¹ s⁻¹
B1: L104EA29YXC120S (receptor)
chain: MHVAQPAVVLASSRGIASFVCEYASPGKYTEVRVTVLRQADSQVTEVCAATYMMGNELTFLDDSICTGTSSGNQVNLTIQGLRAMDTGLYICKVELMYPPPYYEGIGNGTQIYVIDPEPSPDSD
notes: it was 'prepared in an identical manner' to CTLA4XC120S; also called monomeric L104EA29Y extracellular domain

koff (CD86Ig [3]): 300 ± 10 (× 10^−3) S^−1
kon (CD86Ig [3]): 11.4 ± 1.6 (× 10^5) M^−1 S^−1
higher affinity than CTLA4XC120S to CD86Ig (CD86Ig [3]; monomeric proteins): approximately 2 fold
slower rate of dissociation from CD86Ig than CTLA4XC120S (CD86Ig [3]; monomeric proteins): approximately 3 fold
koff (CD80Ig [4]): 71 ± 5 (× 10^−3) S^−1
kon (CD80Ig [4]): 8.3 ± 0.26 (× 10^5) M^−1 S^−1
higher affinity than CTLA4XC120S to CD80Ig (CD80Ig [4]; monomeric proteins): approximately 2 fold
slower rate of dissociation from CD80Ig than CTLA4XC120S (CD80Ig [4]; monomeric proteins): approximately 3 fold
B2: L104EA29YXC120S: single chain (monomeric) L104EA29Y extracellular domain with cysteine 120 to serine mutation (protein)
chain: MHVAQPAVVLASSRGIASFVCEYASPGKYTEVRVTVLRQADSQVTEVCAATYMMGNELTFLDDSICTGTSSGNQVNLTIQGLRAMDTGLYICKVELMYPPPYYEGIGNGTQIYVIDPEPSPDSD

Further lines, the molecule ahead of its results:

Molecule: CS(=O)(=O)OCCCCOS(C)(=O)=O [busulfan]
levels of donor hematopoietic chimerism versus dose [1]: directly proportional to the administered busulfan dose
LD50 [2]: 136 mg/kg

Molecule: L104EA29TIg: double-site CTLA4 mutant Ig fusion, L104E and alanine +29 to threonine
slower “off” rate than wild type CTLA4Ig (CD86Ig [3]): approximately 4 fold

Molecule: L104EA29LIg: double-site CTLA4 mutant Ig fusion, L104E and alanine +29 to leucine
slower “off” rate than wild type CTLA4Ig (CD86Ig [3]): approximately 4 fold
